# Measured values reported in patent US9777044B2, “GLUT-1 as a receptor for HTLV envelopes and its uses” (CENTRE NATIONAL DE LA RECHERCHE SCIENTIFIQUE (CNRS), priority 2003, dated 2017).
# T1: GLUT-1 (Homo sapiens, UniProt P11166)
# T1 construct: factor Xa cleavage site (C); His (C); expressed in transfected cells
# T1 sequence (P11166 1-492): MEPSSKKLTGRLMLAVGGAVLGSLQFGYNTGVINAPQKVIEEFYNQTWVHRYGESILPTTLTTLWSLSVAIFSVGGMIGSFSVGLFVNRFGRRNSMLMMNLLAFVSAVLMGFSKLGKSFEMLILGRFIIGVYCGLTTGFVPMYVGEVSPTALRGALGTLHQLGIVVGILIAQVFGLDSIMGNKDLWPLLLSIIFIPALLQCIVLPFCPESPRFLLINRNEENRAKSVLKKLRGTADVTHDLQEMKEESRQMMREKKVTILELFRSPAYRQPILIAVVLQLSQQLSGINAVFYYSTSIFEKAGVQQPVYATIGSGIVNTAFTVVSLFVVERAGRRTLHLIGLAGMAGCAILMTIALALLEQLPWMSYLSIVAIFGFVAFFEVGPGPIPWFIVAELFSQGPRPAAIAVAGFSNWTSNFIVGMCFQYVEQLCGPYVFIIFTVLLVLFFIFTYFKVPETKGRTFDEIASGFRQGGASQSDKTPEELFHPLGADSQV
# T2: HTLV receptor (Homo sapiens, UniProt P11166)
# T2 construct: endogenous in cells; host or cells: HeLa cells
# T2 sequence (P11166 1-492): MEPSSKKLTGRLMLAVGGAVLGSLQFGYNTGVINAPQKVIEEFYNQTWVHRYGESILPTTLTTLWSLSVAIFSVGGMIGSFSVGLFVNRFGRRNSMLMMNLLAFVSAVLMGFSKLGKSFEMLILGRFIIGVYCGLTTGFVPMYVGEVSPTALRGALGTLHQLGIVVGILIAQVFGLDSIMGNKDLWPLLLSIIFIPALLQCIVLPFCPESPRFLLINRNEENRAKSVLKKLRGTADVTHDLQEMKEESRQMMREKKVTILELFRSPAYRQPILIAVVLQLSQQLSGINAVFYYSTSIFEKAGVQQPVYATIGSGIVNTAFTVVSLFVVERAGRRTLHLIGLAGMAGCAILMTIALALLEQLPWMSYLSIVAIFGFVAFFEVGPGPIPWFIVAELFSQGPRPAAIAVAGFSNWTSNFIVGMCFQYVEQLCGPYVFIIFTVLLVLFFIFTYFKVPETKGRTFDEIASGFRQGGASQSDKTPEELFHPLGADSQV
# Key:
# 293T cells [1] = assay: Hexose uptake assay: 2-deoxyglucose; format: cell-based, human; settings: for glucose uptake in presence of glucose transporter inhibitors: control 293T cells, 20 μM cytochalasin B, 300 μM phloretin
# Description: (§1) Assay of hexose uptake. 2-deoxy-D[1-^3H]glucose, D[U-^14C]fructose and 3-O-[^14C]methyl-D-glucose were obtained from Amersham. Hexose uptake assay were adapted from Harrison et al. 1991). After transfection, approximately 250,000 were seeded/well in 24-well plates. […] Uptake was initiated by adding labeled hexoses to a final concentration of 0.1 mM (2 μCi/ml for 2-2-deoxy-D[1-^3H]glucose and 0.2 μCi/ml for D[U-^14C]fructose and 3-O-[^14C]methyl-D-glucose) and cells were incubated for 5′ additional minutes. Cells were then resuspended in 500 μl cold serum-free glucose-free DMEM, wash one time in serum-free glucose-free DMEM, and solubilized in 400 μl of 0.1% SDS. 3 μl was used for Bradford normalization, while the rest was used for detection of either ^3H or ^14C by liquid scintillation in a Beckman counter.
# 293T cells [2] = assay: Medium acidification after transfection of envelope expression vectors; format: cell-based, human; settings: 293T cells transfected with envelope expression vector; phenol-red pH indicator
# GLUT-1 [3] = target: T1, GLUT-1; assay: Colocalization with GLUT-1 by fluorescence microscopy; format: cell-based
# Description: (§2) In order to directly test the ability of HTLV envelopes to bind GLUT-1, we derived a tagged GLUT-1 expression vector and overexpressed this protein in HeLa cells. […] GLUT-3 is the closest isoform to GLUT-1, and transports glucose with kinetics similar to that of GLUT-1. Thus, we derived a tagged GLUT-3 expression vector. […] To determine if GLUT-1 transfected cells were directly responsible for the observed increased in H1RBD binding, we derived fluorescent tagged GLUT-1 and GLUT-3 to uniquevocally identity GLUT-overexpressing cells in the course of our FACS analysis. […] Consequently, we tested if HTLV glycoproteins directly interact with GLUT-1 proteins. To this end, we evaluated the ability of H1RBD to immunoprecipitate GLUT-1. […] Therefore, the GLUT-1 glucose transporter is an essential component of the HTLV envelope receptor.
# PiT2 [4] = assay: Colocalization with PiT2 by fluorescence microscopy; format: cell-based
# 293T cells [5] = assay: Hexose uptake assay: fructose; format: cell-based, human; settings: transfected 293T cells
# Description: as §1
# GLUT-1 [6] = target: T1, GLUT-1; assay: RBD binding to cells overexpressing GLUT-1; settings: tagged GLUT-1 expression vector, HeLa cells / 293T cells (FIG. 4a legend)
# Description: as §2
# Expression vectors. Full length envelope expression vectors for HTLV-1 (pCEL/2[Denesvre, 1995]) and Friend ecotropic MLV (pCEL/F [Denesvre, 1995]), have been previously described. For the HTLV-2 envelope, a fragment from pHTE2 [Rosenberg, 1998] encompassing the tax, rex and env genes and the 3′ LTR was inserted in the pCSI [Battini, 1999] vector (pCSIX.H2). Full length envelope expression vectors for amphotropic MLV (pCSI.A), or devoid of its R peptide (pCSI.AΔR), and H183FEnv that contains the N-terminal 183 amino acids of the HTLV-1 receptor-binding domain in the F-MLV envelope background, as well as truncated envelope expression vectors, derived from pCSI and encoding either of the first 215 residues of HTLV-1 SU (H1RBD), the first 178 residues of HTLV2-SU (H2RBD) or the first 397 residues of the amphotropic murine leukemia virus (MLV) SU (Amp), fused to a C-terminal rabbit IgG Fc tag (rFc) or to EGFP (H2RBD-GFP). All point mutations introduced in HTLV-1 and -2 RBD constructs were generated using the quickchange site-directed mutagenesis method and mutations were verified by sequencing. Human Glut-1 and Glut-3 cDNA were amplified by PCR from the pLib HeLa cDNA library (Clontech), and inserted into pCHIX, a modified version of the pCSI vector that contains a cassette comprising a factor Xa cleavage site, two copies of the hemagglutinin (HA) tag, and a histidine tag. The resulting construct (pCHIX.hGLUT1) encodes a GLUT-1 protein with a HA-His tag at the C-terminal end. GLUT-1 and GLUT-3 were also inserted in a modified pCSI vector containing a DsRed2 C-terminal tag. Similarly, human CD147 was amplified from 293T total RNA by RT-PCR and inserted into the pCHIX backbone in frame with the HA-His tag (pCHIX.hCD147).
# Binding assays. […] Binding was analyzed on a FACSCalibur (Becton Dickinson) and data analysis was performed using CellQuest (Becton Dickinson) and WinMDI (Scripps) softwares.
# PiT2 [7] = assay: RBD binding to cells overexpressing PiT2
# [8] = system: MLV particles pseudotyped with HTLV-2 envelopes; assay: Interference to infection by HTLV-2 envelope pseudotyped MLV particles; format: cell-based; settings: 293T cells transfected with H2RBD expression vector
# Description: (§3) Viral receptor permits entry and thus infection. No cellular system currently exists that lacks GLUT-1 expression. […] In this system, over-expression of HTLV-2 RBD interferes with infecting incoming HTLV particles and specifically decreases HTLV titers by at least 2 logs, while no effect is detected on control A-MLV titers. To determine if GLUT-1 is an entry receptor for HTLV, we overexpressed GLUT-1, GLUT-3 or Pit2 in addition to the interfering H2RBD. While Pit2 and GLUT-3 had no effect on HTLV titers, GLUT-1 completely alleviated the interference to infection induced by H2RBD (FIG. 5). […] Thus, GLUT-1 is an entry receptor for HTLV.
# (§4) Infections. 293T cells were transfected in 6-wells plate, and one day after transfection, medium was replaced by high glucose DMEM supplemented with fructose (5 g/l) and non-essential amino acids. The next day, infection was initiated by adding supernatants containing MLV particles pseudotyped with either HTLV-2 or A-MLV envelopes. The following day, fresh medium was added, and 24 hours later cells were fixed and stained for alkaline phosphatase activity and dark focus of infection were counted. Viral particles were obtained by transfecting 293T cells with pLAPSN, pGagPol and either pCSIX.H2 or pCSI.A, and harvesting the 0.45 μm-filtered supernatants 24 hours later.
# [9] = system: MLV particles pseudotyped with A-MLV envelopes; assay: Interference to infection by A-MLV envelope pseudotyped MLV particles; format: cell-based; settings: 293T cells transfected with H2RBD expression vector
# Description: as §3, §4
# 293T cells [10] = assay: Extracellular lactate in culture medium of transfected cells; format: cell-based, human; settings: medium of 293T cells one day post transfection
# Description: Envelope expression and metabolic measurements. 293T cells were transfected with the various envelope expression vectors using a modified version of the calcium phosphate method. After an overnight transfection, cells were washed in phosphate-buffered saline (PBS) and fresh medium was added. Media were harvested at the indicated time points, filtered through a 0.45-μm pore-size filter, and lactate and glucose were measured with enzymatic diagnostic kits (Sigma). Values were normalized to cellular protein content using the Bradford assay (Sigma) after solubilization of cells in lysis buffer (50 mM Tris-HCl pH 8.0, 150 mM NaCl, 0.1% sodium dodecyl sulfate, 1.0% Nonidet P-40, 0.5% deoxycholate) and clarification by centrifugation.
# HTLV receptor = target: T2, HTLV receptor; assay: FACS binding assay of RBD and mutants on HeLa cells
# Description: Binding assays. Binding assays were carried out as previously described [Manel, 2003]. Briefly, 5×10^5 cells (293T, HeLa, Jurkat or freshly isolated human erythrocytes) were incubated with 500 μl of H1RBD, H2RBD or ARBD supernatants for 30 min at 37° C., washed with PBA (1% BSA, 0.1% sodium azide in PBS), and incubated with a sheep anti-rabbit IgG antibody conjugated to fluorescein isothiocyanate (Sigma). […] Binding was analyzed on a FACSCalibur (Becton Dickinson) and data analysis was performed using CellQuest (Becton Dickinson) and WinMDI (Scripps) softwares.
# GLUT-1 [11] = target: T1, GLUT-1; assay: Immunoprecipitation of GLUT-1-HA with anti-rabbit-Fc beads; format: binding; settings: co-expression with GLUT-1 in 293T cells, probed with anti-HA antibody
# Description: FIGS. 4a-4c GLUT-1 is a receptor for HTLV envelopes. FIG. 4a, Binding of H1RBD, H2RBD, H2RBD D102A mutant, and ARBD to control 293T cells or 293T cells overexpressing either GLUT-1 or PiT2. FIG. 4b, Binding of H2RBD-EGFP to cells overexpressing GLUT-1-HA or GLUT-3-HA, and corresponding immunoblots using an anti-HA antibody. FIG. 4c, Immunoprecipitation of GLUT-1-HA from 293T cells transfected with either an irrelevant construct, GLUT-1 alone, H1RBD alone, H1RBD Y114A alone, GLUT-1 with H1RBD or GLUT-1 with H1RBD Y114A expression vectors Immunoprecipitation was performed using anti-rabbit-Fc beads and probed with an anti-HA antibody. Total cell extracts were blotted using an anti-rabbit Fc or an anti-HA antibody.
# In order to directly test the ability of HTLV envelopes to bind GLUT-1, we derived a tagged GLUT-1 expression vector and overexpressed this protein in HeLa cells. […] GLUT-3 is the closest isoform to GLUT-1, and transports glucose with kinetics similar to that of GLUT-1. Thus, we derived a tagged GLUT-3 expression vector. […] To determine if GLUT-1 transfected cells were directly responsible for the observed increased in H1RBD binding, we derived fluorescent tagged GLUT-1 and GLUT-3 to uniquevocally identity GLUT-overexpressing cells in the course of our FACS analysis. […] To this end, we evaluated the ability of H1RBD to immunoprecipitate GLUT-1. […]
molecule,measurement,setting,value
"O=C(CCc1ccc(O)cc1)c1c(O)cc(O)cc1O [phloterin, phloretin, reference compound]",glucose uptake in presence of glucose transporter inhibitors,293T cells [1],inhibited glucose uptake
"C=C1[C@@H](C)[C@H]2[C@H](Cc3ccccc3)NC(=O)[C@]23OC(=O)/C=C/[C@H](O)CCC[C@@H](C)C/C=C/[C@H]3[C@@H]1O [cytochalasin B, reference compound]",glucose uptake in presence of glucose transporter inhibitors,293T cells [1],inhibited glucose uptake
HTLV-2 Env: full length syncytial wild-type HTLV-2 envelope (pCSIX.H2) (MKWVTFISLLFLFSSAYS),medium acidification,293T cells [2],did not readily acidify
GFP-tagged HTLV-2 RBD,colocalization with GLUT-1,GLUT-1 [3],colocalized with GLUT-1
same,colocalization with PiT2,PiT2 [4],not with PiT2
H2RBD: first 178 residues of HTLV2-SU fused to a C-terminal rabbit IgG Fc tag (rFc) (protein) VDVPRDCGCKPCICTVPEVSSVFIFPPKPKDVLTITLTPKVTCVVVDISKDDPEVQFSWFVDDVEVHTAQTQPREEQFNSTFRSVSELPIMHQDWLNGKEFKCRVNSAAFPAPIEKTISKTKGRPKAPQVYTIPPPKEQMAKDKVSLTCMITDFFPEDITVEWQWNGQPAENYKNTQPIMDTDGSYFVYSKLNVQKSNWEAGNTFTCSVLHEGLHNHHTEKSLSHSPGK,decrease in 2-deoxyglucose uptake,293T cells [1]; transfected 293T cells vs control cells,approximately 4 fold
same,Fructose uptake,293T cells [5],not altered
same,binding upon GLUT-1 overexpression,GLUT-1 [6],dramatically increased
same,binding upon overexpression of PiT2,PiT2 [7],remained at background levels
same,decrease of HTLV titers by over-expression of interfering RBD,[8],at least 2 logs
same,effect on control A-MLV titers,[9],no effect
D106A (protein) DYSPSCCTLTIGVSSYHSKPCNPAQPVCSWTLDLLALSADQALQPPCPNLVSYSSYHATYSLYLFPHWIKKPNRNGGGYYSASYSAPCSLKCPYLGCQSWTCPYTGAVSSPYWKFQQDVNFTQEVSRLNINLHFSKCGFPFSLLVDAPGYDPIWFLNTEPSQLPPTAPPLLPHSNLDHILEPSIPWKSKLLTLVQ,lactate accumulation in cells expressing RBD mutant,293T cells [10],minimally reduced
same,binding to the HTLV receptor as detected by FACS analysis,HTLV receptor,significantly reduced
same,binding upon GLUT-1 overexpression,GLUT-1 [6],did not bind GLUT-1
Y114A (protein) DYSPSCCTLTIGVSSYHSKPCNPAQPVCSWTLDLLALSADQALQPPCPNLVSYSSYHATYSLYLFPHWIKKPNRNGGGYYSASYSDPCSLKCPALGCQSWTCPYTGAVSSPYWKFQQDVNFTQEVSRLNINLHFSKCGFPFSLLVDAPGYDPIWFLNTEPSQLPPTAPPLLPHSNLDHILEPSIPWKSKLLTLVQ,lactate accumulation in cells expressing RBD mutant,293T cells [10],not reduced
same,binding to the HTLV receptor as detected by FACS analysis,HTLV receptor,non-detectable
same,detection of GLUT-1 upon immunoprecipitation with anti-rabbit-Fc-beads,GLUT-1 [11],could not be detected
